From patent publication US6365161 (Bristol-Myers Squibb, dated 2002)

Molecular target: T1, carcinoembryonic antigen (CEA) (UniProt P06731 35-685)
T1 sequence (looked up): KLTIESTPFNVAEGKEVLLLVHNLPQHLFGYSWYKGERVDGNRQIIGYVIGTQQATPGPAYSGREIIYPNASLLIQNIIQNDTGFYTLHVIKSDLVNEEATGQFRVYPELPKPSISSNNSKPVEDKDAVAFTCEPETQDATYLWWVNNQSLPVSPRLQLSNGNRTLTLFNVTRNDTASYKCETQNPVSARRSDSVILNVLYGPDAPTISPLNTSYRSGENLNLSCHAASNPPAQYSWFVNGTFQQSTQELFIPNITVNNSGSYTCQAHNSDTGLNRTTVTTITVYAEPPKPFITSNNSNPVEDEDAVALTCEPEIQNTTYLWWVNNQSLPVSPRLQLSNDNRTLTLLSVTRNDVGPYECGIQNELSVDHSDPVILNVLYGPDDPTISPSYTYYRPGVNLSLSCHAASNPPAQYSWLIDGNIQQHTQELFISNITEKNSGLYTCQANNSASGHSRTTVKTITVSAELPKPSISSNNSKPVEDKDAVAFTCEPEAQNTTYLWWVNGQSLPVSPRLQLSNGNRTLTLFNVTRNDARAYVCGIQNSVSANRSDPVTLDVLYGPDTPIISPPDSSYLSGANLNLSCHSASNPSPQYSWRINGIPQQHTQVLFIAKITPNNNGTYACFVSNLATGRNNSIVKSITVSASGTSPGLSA
Experiment: bispecific ELISA, plates coated with CEA, detection with soluble FcγRI/IgM-µ
From the text: ELISA plates are coated with CEA and the blocked with 5% PBA.

B1: single chain antibody H22 encoded by construct 225 (scFv)
scFv: DIQLVESGGGVVQPGRSLRLSCSSSGFIFSDNYMYWVRQAPGKGLEWVATISDGGSYTYYPDSVKGRFTISRDNSKNTLFLQMDSLRPEDTGVYFCARGYYRYEGAMDYWGQGTPVTVSSGGGGSGGGGSGGGGSDIQLTQSPSSLSASVGDRVTITCKSSQSVLYSSNQKNYLAWYQQKPGKAPKLLIYWASTRESGVPSRFSGSGSGTDFTFTISSLQPEDIATYYCHQYLSSWTFGQGTKVEIKSSCSSGGGGSDIAAAEQKLISEEDLNGAAHHHHHH
notes: also called single chain H22 antibody
  binding result: no binding
